Measured values as given in patent publication US20070071744A1 (published 2007).
Ends that are not written are not given here.

Experiments:
Test in all cases: PepSpot peptide array
peptide 12 = target: T1, peptide 12 (human)
T1 peptide: Ac-GPLPKPSLQALPS
Procedure: (§1) The peptides were synthesized on a cellulose membrane in a stepwise manner resulting in a defined arrangement (peptide array) and are covalently bound to the cellulose membrane. Binding assays were performed directly on the peptide array. In general an antigen peptide array is incubated with blocking buffer for several hours to reduce non-specific binding of proteins or antibodies. It follows the incubation with a primary (antigen peptide-binding) antibody in blocking buffer and an incubation with a horseradish peroxidase (HRP)-labelled secondary antibody, which binds selectively the primary antibody. Alternatively a HRP-labelled primary antibody in blocking buffer can be used.
(§2) A short T(Tween)-TBS-buffer washing directly after the incubation of the antigen peptide array with the secondary protein or antibody or the HRP-labelled primary antibody followed by the first chemiluminescence experiment is made to get an first overview which antigen peptides do bind the primary antibody. Several buffer washing steps follow (T-TBS- and TBS-buffer) to reduce false positive binding (unspecific antibody binding to the cellulose membrane itself). After these washing steps the final chemiluminescence analysis is performed. The data were analysed with an imaging system showing the signal intensity (Light units, LU) as single measurements for each peptide. In order to evaluate non-specific binding of secondary antibodies, incubations using the secondary antibody have to be performed in the absence of the primary antibody as control incubation.

peptide 49 = target: T2, peptide 49 (human)
T2 peptide: Ac-SLPSDQLELVATG
Procedure: as §1, §2

peptide 68 = target: T3, peptide 68 (human)
T3 peptide: Ac-QTRYGFDQFALYK
Procedure: as §1, §2

peptide 131 = target: T4, peptide 131 (human)
T4 peptide: Ac-ARQYYTKGNGGRE
Procedure: as §1, §2

peptide 77 = target: T5, peptide 77 (human)
T5 peptide: Ac-PYKNPERWYRASF
Procedure: as §1, §2

peptide 80 = target: T6, peptide 80 (human)
T6 peptide: Ac-RWYRASFPIITVT
Procedure: as §1, §2

peptide 120 = target: T7, peptide 120 (human)
T7 peptide: Ac-FTTETSRSITTSP
Procedure: as §1, §2

peptide 33 = target: T8, peptide 33 (human)
T8 peptide: Ac-SRYQDQAVLFIPA
Procedure: as §1, §2

peptide 57 = target: T9, peptide 57 (human)
T9 peptide: Ac-KPSLSAQPGPAVS
Procedure: as §1, §2

peptide 70 = target: T10, peptide 70 (human)
T10 peptide: Ac-GFDQFALYKEGDP
Procedure: as §1, §2

peptide 111 = target: T11, peptide 111 (human)
T11 peptide: Ac-AEFSEATAELTVS
Procedure: as §1, §2

peptide 9 = target: T12, peptide 9 (human)
T12 peptide: Ac-RVPAQSGPLPKPS
Procedure: as §1, §2

peptide 51 = target: T13, peptide 51 (human)
T13 peptide: Ac-DQLELVATGVFAK
Procedure: as §1, §2

peptide 60 = target: T14, peptide 60 (human)
T14 peptide: Ac-QPGPAVSSGGDVT
Procedure: as §1, §2

peptide 37 = target: T15, peptide 37 (human)
T15 peptide: Ac-LFIPAMKRSLAGR
Procedure: as §1, §2

peptide 95 = target: T16, peptide 95 (human)
T16 peptide: Ac-YLWSAPSDPLELV
Procedure: as §1, §2

peptide 26 = target: T17, peptide 26 (human)
T17 peptide: Ac-PPGVDLYRLEKLS
Procedure: as §1, §2

peptide 4 = target: T18, peptide 4 (human, cysteine pairing not given here)
T18 peptide: Ac-ALFCLGLCLGRVP
Procedure: as §1, §2

peptide 62 = target: T19, peptide 62 (human)
T19 peptide: Ac-AVSSGGDVTLQCQ
Procedure: as §1, §2

peptide 108 = target: T20, peptide 108 (human)
T20 peptide: Ac-EPPSSVAEFSEAT
Procedure: as §1, §2

peptide 48 = target: T21, peptide 48 (human)
T21 peptide: Ac-LWSLPSDQLELVA
Procedure: as §1, §2

peptide 85 = target: T22, peptide 85 (human)
T22 peptide: Ac-TVTAAHSGTYRCY
Procedure: as §1, §2

peptide 96 = target: T23, peptide 96 (human)
T23 peptide: Ac-WSAPSDPLELVVT
Procedure: as §1, §2

peptide 63 = target: T24, peptide 63 (human)
T24 peptide: Ac-SSGGDVTLQCQTR
Procedure: as §1, §2

peptide 2 = target: T25, peptide 2 (human, cysteine pairing not given here)
T25 peptide: Ac-PSPTALFCLGLCL
Procedure: as §1, §2

peptide 66 = target: T26, peptide 66 (human)
T26 peptide: Ac-TLQCQTRYGFDQF
Procedure: as §1, §2

peptide 8 = target: T27, peptide 8 (human)
T27 peptide: Ac-LGRVPAQSGPLPK
Procedure: as §1, §2

peptide 125 = target: T28, peptide 125 (human)
T28 peptide: Ac-TSPKESDSPAGPA
Procedure: as §1, §2

peptide 23 = target: T29, peptide 23 (human)
T29 peptide: Ac-TLRCQGPPGVDLY
Procedure: as §1, §2

peptide 28 = target: T30, peptide 28 (human)
T30 peptide: Ac-DLYRLEKLSSSRY
Procedure: as §1, §2

peptide 41 = target: T31, peptide 41 (human)
T31 peptide: Ac-SLAGRYRCSYQNG
Procedure: as §1, §2

peptide 5 = target: T32, peptide 5 (human, cysteine pairing not given here)
T32 peptide: Ac-FCLGLCLGRVPAQ
Procedure: as §1, §2

peptide 78 = target: T33, peptide 78 (human)
T33 peptide: Ac-KNPERWYRASFPI
Procedure: as §1, §2

peptide 31 = target: T34, peptide 31 (human)
T34 peptide: Ac-KLSSSRYQDQAVL
Procedure: as §1, §2

peptide 127 = target: T35, peptide 127 (human)
T35 peptide: Ac-ESDSPAGPARQYY
Procedure: as §1, §2

peptide 29 = target: T36, peptide 29 (human)
T36 peptide: Ac-YRLEKLSSSRYQD
Procedure: as §1, §2

peptide 87 = target: T37, peptide 87 (human)
T37 peptide: Ac-AHSGTYRCYSFSS
Procedure: as §1, §2

peptide 99 = target: T38, peptide 99 (human)
T38 peptide: Ac-PLELVVTGTSVTP
Procedure: as §1, §2

peptide 91 = target: T39, peptide 91 (human)
T39 peptide: Ac-YSFSSRDPYLWSA
Procedure: as §1, §2

peptide 84 = target: T40, peptide 84 (human)
T40 peptide: Ac-IITVTAAHSGTYR
Procedure: as §1, §2

peptide 40 = target: T41, peptide 40 (human)
T41 peptide: Ac-KRSLAGRYRCSYQ
Procedure: as §1, §2

B1: monoclonal antibody hGP 5C4 (antibody, V domains shown)
VH: EVKLQESGGGLVQPGRSLKLSCTASGFTFSDYFMSWVRQAPTRGLEWVASISSGGASAYWRDSVKGRFTISRDNAKSALYLQMDSLRSEDTATYFCARGELDFDYWGQGVMVAVSS
VL: ADPNSTLLSASVGDRVTLNCTASQNVYKNLAWYQQKLGEAPRLLLYSANSQTGIPSRFSGSGSGPDFTLTISSLQPEDVASYFCQQYYSGNTFGAGTKLELKR
notes: Rat hybridoma antibody (Lou/C rats), heavy chain gamma 2a, light chain kappa; also called ab 5C4; anti-GPVI mAb 5C4
- LU (Light Units) (peptide 12): 2980 LU
- LU (Light Units) (peptide 49): 91 LU
- LU (Light Units) (peptide 68): 84 LU
- LU (Light Units) (peptide 131): 289 LU
- LU (Light Units) (peptide 77): 97 LU
- LU (Light Units) (peptide 80): 184 LU
- LU (Light Units) (peptide 120): 250 LU
- LU (Light Units) (peptide 33): 259 LU
- LU (Light Units) (peptide 57): 128 LU
- LU (Light Units) (peptide 70): 3 LU
- LU (Light Units) (peptide 111): 136 LU
- LU (Light Units) (peptide 9): 1100 LU
- LU (Light Units) (peptide 51): 73 LU
- LU (Light Units) (peptide 60): 88 LU
- LU (Light Units) (peptide 37): 1120 LU
- signal to noise ratio (peptide 37): ~4 ratio
- LU (Light Units) (peptide 95): 120 LU
- LU (Light Units) (peptide 26): 101 LU
- LU (Light Units) (peptide 4): 5 LU
- LU (Light Units) (peptide 62): 49 LU
- LU (Light Units) (peptide 108): 12 LU
- LU (Light Units) (peptide 48): 47 LU
- LU (Light Units) (peptide 85): 14 LU
- LU (Light Units) (peptide 96): 210 LU
- LU (Light Units) (peptide 63): 2 LU
- LU (Light Units) (peptide 2): 79 LU
- LU (Light Units) (peptide 66): 82 LU
- LU (Light Units) (peptide 8): 794 LU
- LU (Light Units) (peptide 125): 25 LU
- LU (Light Units) (peptide 23): 76 LU
- LU (Light Units) (peptide 28): 179 LU
- LU (Light Units) (peptide 41): 8 LU
- LU (Light Units) (peptide 5): 26 LU
- LU (Light Units) (peptide 78): 51 LU
- LU (Light Units) (peptide 31): 211 LU
- LU (Light Units) (peptide 127): 101 LU
- LU (Light Units) (peptide 29): 169 LU
- LU (Light Units) (peptide 87): 93 LU
- LU (Light Units) (peptide 99): 202 LU
- LU (Light Units) (peptide 91): 67 LU
- LU (Light Units) (peptide 84): 87 LU
- LU (Light Units) (peptide 40): 139 LU
